Test results taken from patent US20250034266A1 (ZAI LAB SHANGHAI, published 2025).

Tests used:
human CCR8 [1] = molecular target: T1, human CCR8 (human, UniProt P51685 1-355); experiment: FACS, competition with AF647-human CCL1 on CHO-K1-human CCR8 cells
T1 construct: whole, on cells; also called hCCR8
Method: (§1) Antibodies were prepared with 3-fold serial dilution ranging from 200 nM to 0.01 nM in FACS buffer. Then, cells were washed by FACS buffer for three times after incubation. […] FlowJo software was used for analysis. Data was plotted as the logarithm of antibody concentration versus mean fluorescence signals. IC₅₀ values were determined in GraphPad Prism 8 (GraphPad Software) using a log(agonist) vs. response-Variable slope (4 parameters) curve fit.

human CCR8 [2] = molecular target: T1, human CCR8; experiment: FACS, competition with AF647-human CCL1 on HEK293-human CCR8 cells
Method: as §1

human CCR8 [3] = molecular target: T1, human CCR8; experiment: FACS on HuT78 cells (endogenous human CCR8)
Method: HuT78 cells expressing endogenous human CCR8 were used for determining binding affinities of selected affinity matured anti-CCR8 antibodies. Briefly, a total of […] cells for each well were seeded in 96-well plates and washed with FACS buffer (DPBS containing […]) for once. […] Cells were incubated with 50 μL of diluted antibodies at 4° C. for 1 hour. After primary antibody incubation, cells were washed for 3 times by FACS buffer. Then, cells were stained by Alexa Fbu647 labeled anti-human IgG secondary antibody (Jackson ImmunoResearch, #109606170) at 1:600 dilution in FACS buffer for 0.5 hour at 4° C. After 3 times washed, flow cytometry (Sartourius, iQue3) was performed to measure the binding affinities of antibodies. […]

human CCR8 [4] = molecular target: T1, human CCR8; experiment: FACS, competition with CCL1 on CHO-K1-human CCR8 cells
human CCR8 [5] = molecular target: T1, human CCR8; experiment: FACS on CHO-K1-human CCR8 cells
cynomolgus CCR8 = molecular target: T2, cynomolgus CCR8 (cynomolgus, UniProt G7NYJ2 1-355); experiment: FACS on HEK293-cynomolgus CCR8 cells
T2 construct: whole, on cells
T2 sequence (G7NYJ2 entry or part of it): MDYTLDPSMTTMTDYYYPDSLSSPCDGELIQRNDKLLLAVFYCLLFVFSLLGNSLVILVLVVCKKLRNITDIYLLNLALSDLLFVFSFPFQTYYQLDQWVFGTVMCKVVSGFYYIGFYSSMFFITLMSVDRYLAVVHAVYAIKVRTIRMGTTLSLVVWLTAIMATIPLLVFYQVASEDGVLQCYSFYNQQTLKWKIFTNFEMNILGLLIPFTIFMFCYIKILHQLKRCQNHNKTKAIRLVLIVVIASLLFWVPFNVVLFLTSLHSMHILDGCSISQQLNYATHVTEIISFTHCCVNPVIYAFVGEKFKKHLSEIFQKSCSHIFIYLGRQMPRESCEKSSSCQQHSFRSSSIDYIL

T1 sequence (P51685 whole entry): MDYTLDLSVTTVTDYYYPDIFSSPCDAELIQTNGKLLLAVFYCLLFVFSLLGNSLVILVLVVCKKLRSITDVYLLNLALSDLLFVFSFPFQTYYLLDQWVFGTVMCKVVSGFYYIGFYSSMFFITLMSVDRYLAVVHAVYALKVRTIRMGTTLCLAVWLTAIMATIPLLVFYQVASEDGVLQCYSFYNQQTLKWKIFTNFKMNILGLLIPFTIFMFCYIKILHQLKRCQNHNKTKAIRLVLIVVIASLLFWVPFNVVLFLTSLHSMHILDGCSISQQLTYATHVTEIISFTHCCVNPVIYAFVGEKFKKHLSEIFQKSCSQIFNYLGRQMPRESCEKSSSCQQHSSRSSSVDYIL

Binder | IC50 (human CCR8 [1]) | Max Inhibition (%) (human CCR8 [1]) | IC50 (human CCR8 [2]) | Max Inhibition (%) (human CCR8 [2]) | Max MFI (human CCR8 [3]) | IC50 (human CCR8 [4]) | Max Inhibition (%) (human CCR8 [4]) | EC50 (human CCR8 [5]) | Max MFI (human CCR8 [5]) | EC50 (cynomolgus CCR8) | Max MFI (cynomolgus CCR8) | EC50 (human CCR8 [3])
348E2D11 (antibody, V domains shown, purified murine hybridoma antibody) VH: QVQLVETGGGLVRPGNSLKLSCVTSGFSFSNYRMHWLRQPPGKRLEWIAVITVKSDNYGANYAESVKGRFTISRDDSKSSVYLQMNRLREEDTATYYCSSLGRVAYWGQGTLVTVSA VL: DIVMTQSQKFMFTSVGDRVSVTCKASQNVDTNVVWYQQKPGQSPKALIYSASSRYSGVPDRFTGSGSGTDFTLTISNVQSEDLAEYFCQQHNSFPLTFGAGTKLELI | 0.231 nM | 95% | 0.368 nM | 100% | – | – | – | – | – | – | – | –
262C2G7 (antibody, V domains shown, purified murine hybridoma antibody) VH: DVHLQESGPGLVKPSQSLSLTCSVTGYSITSGYYWNWIRQFPGNKLEWMGYISYDGSNNYNPSLKNRISITRDISKNQFFLKLNSVTTEDTATYYCARQIGLRRGAMDYWGQGTSVTVSS VL: DIQMTQSSSYLSVSLGGRVTITCKASDHINNWLAWYQQKPGNAPRLLISGSTSLKAGVASRFSGSGSGKDYTLTITSLQTEDVATYYCQQYWGIPFTFGGGTKLEIK | 1.57 nM | 95.6% | 0.632 nM | 86.1% | – | – | – | – | – | – | – | –
273H2G6 (antibody, V domains shown, purified murine hybridoma antibody) VH: DVQLQESGPGLVKPSQSLSLTCSVTGYSITSGYYWNWIRQFPGNKLEWMGYISYDGSNNYNPSLKNRISITRDISKNQFFLKLNSVTTEDTATYYCARQVGLRRGAMDYWGQGTSVTVSS VL: DIQMTQSSSYLSVSLGGRVTITCKASDHINNWLAWYQQKPGNAPRLLISGSTSLKAGVASRFSGSGSGKDYTLSITSLQTEDVATYYCQQYWSIPYTFGGGTKLEIK | 2.48 nM | 91.3% | 0.782 nM | 85.8% | – | – | – | – | – | – | – | –
234G9C12 (antibody, V domains shown, purified murine hybridoma antibody) VH: DVQLQESGPGLVKPSQSLSLTCSVTGYSITSGYYWNWIRQFPGNKLEWMGYTSYDGSNNYNPSFKNRISITRDISKNQFFLKLNSVTTEDTATYYCARQIGLRRGAMDHWGQGTSVTVSS VL: DIQMTQSSSYLSVSLGGRVTITCKASDHINNWLAWYQQKPGNAPRLLISGSTSLRAGVASRFSGSGSGKDYTLTITSLQTEDVATYYCQQYWGIPFTFGGGTKLEIK | 1.34 nM | 96.8% | 0.812 nM | 94% | – | – | – | – | – | – | – | –
191E12H8 (antibody, V domains shown, purified murine hybridoma antibody) VH: DVQLQESGPGLVKPSQSLSLTCSVTGYSITSGYYWNWIRQFPGNKLEWMGYISYDGSNNYNPSLKNRISITRDISKNQFFLKLNSVTTEDTATYYCARQIGLRRGAMDYWGQGTSVTVSS VL: DIQMTQSSSYLSVSLGGRVTITCKASDHINTWLAWYQQKPGNAPRLLISGSTSLKAGVASRFSGSGSGKDYTLTITSLQTEDVATYYCQQYWGIPFTFGGGTKLEIK | 13.3 nM | 89.7% | 0.934 nM | 85.6% | – | – | – | – | – | – | – | –
Hu149-13 (antibody, human IgG1, V domains shown, human IgG1) VH: EVQLVESGGGLVQPGGSLKLSCAASGFTFNTYAMNWVRQASGKGLEWVGRIRSKSNFYATAYAASVKGRFTISRDDSKNTAYLQMNSLKTEDTAVYYCTRGREYGRSYAMDYWGQGTLVTVSS VL: DIVMTQSPLSLPVTPGEPASISCRSSKSLLHSNANTYLYWFLQKPGQSPQLLIYRMSNLASGVPDRFSGSGSGTDFTLKISRVEAEDVGVYYCMQHLEYPLTFGGGTKVELK | – | – | – | – | 39100 MFI | 0.0841 nM | 102% | 0.1 nM | 653000 MFI | 0.193 nM | 4.37e+06 MFI | –
Hu149-15 (antibody, human IgG1, V domains shown, human IgG1) VH: EVQLVESGGGLVQPGGSLKLSCAASGFTFNTYAMNWVRQAPGKGLEWVGRIRSKSNFYATAYAASVKGRFTISRDDSKNTAYLQMNSLKTEDTAVYYCTRGRDYGSSYAMDYWGQGTLVTVSS VL: DIVMTQSPLSLPVTPGEPASISCRSSKSLLHSNANTYLYWFLQKPGQSPQLLIYRMSNLASGVPDRFSGSGSGTDFTLKISRVEAEDVGVYYCMQHLEYPLTFGGGTKVELK | – | – | – | – | 21300 MFI | 0.104 nM | 99.3% | 0.128 nM | 627000 MFI | 0.282 nM | 3.93e+06 MFI | 0.108 nM
Hu149-14 (antibody, human IgG1, V domains shown, human IgG1) VH: EVQLVESGGGLVQPGGSLKLSCAASGFTFNTYAMNWVRQASGKGLEWVGRIRSKSNFYATAYAASVKGRFTISRDDSKNTAYLQMNSLKTEDTAVYYCTRGREYGSAYAMDYWGQGTLVTVSS VL: DIVMTQSPLSLPVTPGEPASISCRSSKSLLHSNANTYLYWFLQKPGQSPQLLIYRMSNLASGVPDRFSGSGSGTDFTLKISRVEAEDVGVYYCMQHLEYPLTFGGGTKVELK | – | – | – | – | 28600 MFI | 0.0816 nM | 100% | 0.0626 nM | 663000 MFI | 0.157 nM | 4.42e+06 MFI | 0.184 nM

The remaining lines, values ahead:

IC50 (human CCR8 [1]) | Max Inhibition (%) (human CCR8 [1]) | IC50 (human CCR8 [2]) | Max Inhibition (%) (human CCR8 [2]) | Max MFI (human CCR8 [3]) | IC50 (human CCR8 [4]) | Max Inhibition (%) (human CCR8 [4]) | EC50 (human CCR8 [5]) | Max MFI (human CCR8 [5]) | EC50 (cynomolgus CCR8) | Max MFI (cynomolgus CCR8) | EC50 (human CCR8 [3]) | Binder
– | – | – | – | 240000 MFI | 0.796 nM | 101% | 0.642 nM | 794000 MFI | 0.946 nM | 4.15e+06 MFI | – | Hu149-21 (antibody, human IgG1, V domains shown, human IgG1) VH: EVQLVESGGGLVQPGGSLKLSCAASGFTFNTYAMNWVRQASGKGLEWVGRIRSKSNFYATAYAASVKGRFTISRDDSKNTAYLQMNSLKTEDTAVYYCTRGREYGRSYAMDYWGQGTLVTVSS VL: DIVMTQSPLSLPVTPGEPASISCRSSKSLLHSNANTYLYWFLQKPGQSPQLLIYRMSNLASGVPDRFSGSGSGTDFTLKISRVEAEDVGVYYCMQHLKYPLTFGGGTKVELK
– | – | – | – | 228000 MFI | 0.114 nM | 101% | 0.0659 nM | 672000 MFI | 0.142 nM | 3.8e+06 MFI | – | Hu149-16 (antibody, human IgG1, V domains shown, human IgG1) VH: EVQLVESGGGLVQPGGSLKLSCAASGFTFNTYAMNWVRQASGKGLEWVGRIRSKSNFYATAYAASVKGRFTISRDDSKNTAYLQMNSLKTEDTAVYYCTRGRDYGSSYAMDYWGQGTLVTVSS VL: DIVMTQSPLSLPVTPGEPASISCRSSKSLLHSNANTYLYWFLQKPGQSPQLLIYRMSNLASGVPDRFSGSGSGTDFTLKISRVEAEDVGVYYCMQHLKYPLTFGGGTKVELK
– | – | – | – | 253000 MFI | 0.147 nM | 100% | 0.129 nM | 751000 MFI | 0.158 nM | 4.02e+06 MFI | – | Hu149-20 (antibody, human IgG1, V domains shown, human IgG1) VH: EVQLVESGGGLVQPGGSLKLSCAASGFTFNTYAMNWVRQASGKGLEWVGRIRSKSNFYATAYAASVKGRFTISRDDSKNTAYLQMNSLKTEDTAVYYCTRGKEYGSSYAMDYWGQGTLVTVSS VL: DIVMTQSPLSLPVTPGEPASISCRSSKSLLHSNANTYLYWFLQKPGQSPQLLIYRMSNLASGVPDRFSGSGSGTDFTLKISRVEAEDVGVYYCMQHLKYPLTFGGGTKVELK
– | – | – | – | 173000 MFI | 0.459 nM | 101% | 0.216 nM | 793000 MFI | 0.462 nM | 4.25e+06 MFI | – | Hu149-22 (antibody, human IgG1, V domains shown, human IgG1) VH: EVQLVESGGGLVQPGGSLKLSCAASGFTFNTYAMNWVRQASGKGLEWVGRIRSKSNFYATAYAASVKGRFTISRDDSKNTAYLQMNSLKTEDTAVYYCTRGREYGSAYAMDYWGQGTLVTVSS VL: DIVMTQSPLSLPVTPGEPASISCRSSKSLLHSNANTYLYWFLQKPGQSPQLLIYRMSNLASGVPDRFSGSGSGTDFTLKISRVEAEDVGVYYCMQHLKYPLTFGGGTKVELK
– | – | – | – | 187000 MFI | 0.168 nM | 100% | 0.161 nM | 666000 MFI | 0.214 nM | 3.95e+06 MFI | – | Hu149-19 (antibody, human IgG1, V domains shown, human IgG1) VH: EVQLVESGGGLVQPGGSLKLSCAASGFTFNTYAMNWVRQASGKGLEWVGRIRSKSNFYATAYAASVKGRFTISRDDSKNTAYLQMNSLKTEDTAVYYCTRGREYGSSYAMDYWGQGTLVTVSS VL: DIVMTQSPLSLPVTPGEPASISCRSSKSLLHSNANTYLYWFLQKPGQSPQLLIYRMSNLASGVPDRFSGSGSGTDFTLKISRVEAEDVGVYYCMQHLKYPLTFGGGTKVELK
– | – | – | – | 29600 MFI | 0.0698 nM | 100% | 0.0755 nM | 645000 MFI | 0.123 nM | 4.11e+06 MFI | – | Hu149-17 (antibody, human IgG1, V domains shown, human IgG1) VH: EVQLVESGGGLVQPGGSLKLSCAASGFTFNTYAMNWVRQASGKGLEWVGRIRSKSNFYATAYAASVKGRFTISRDDSKNTAYLQMNSLKTEDTAVYYCTRGRDYGSSYAMDYWGQGTLVTVSS VL: DIVMTQSPLSLPVTPGEPASISCRSSKSLLHSNANTYLYWFLQKPGQSPQLLIYRMSNLASGVPDRFSGSGSGTDFTLKISRVEAEDVGVYYCMQHLSYPLTFGGGTKVELK
